Measurements: patent publication US20240262905A1 (PANDION OPERATIONS, published 2024)

T1: human DSG-3 (human, UniProt P32926 50-615, limits assumed)
T1 construct: Soluble analyte (Octet) and plate coat (ELISA); also called hDSG-3
T1 sequence (looked up): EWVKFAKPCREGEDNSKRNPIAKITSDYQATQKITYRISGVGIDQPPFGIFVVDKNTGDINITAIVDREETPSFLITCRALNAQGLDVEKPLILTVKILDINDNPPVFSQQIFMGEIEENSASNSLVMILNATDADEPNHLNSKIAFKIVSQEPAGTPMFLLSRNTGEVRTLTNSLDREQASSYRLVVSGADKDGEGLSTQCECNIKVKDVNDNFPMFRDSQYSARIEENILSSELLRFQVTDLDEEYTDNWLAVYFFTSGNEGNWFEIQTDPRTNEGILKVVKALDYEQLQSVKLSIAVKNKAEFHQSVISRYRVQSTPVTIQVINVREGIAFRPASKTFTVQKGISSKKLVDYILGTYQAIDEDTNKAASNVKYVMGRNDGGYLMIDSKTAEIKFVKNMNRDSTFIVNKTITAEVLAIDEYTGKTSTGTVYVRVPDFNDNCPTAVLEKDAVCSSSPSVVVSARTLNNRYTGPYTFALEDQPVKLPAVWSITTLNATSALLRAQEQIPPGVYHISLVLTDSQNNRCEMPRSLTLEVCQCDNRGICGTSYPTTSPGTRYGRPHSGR

T2: desmoglein-4 (Homo sapiens (Human), UniProt Q86SJ6 50-631)
T2 construct: also called DSG-4
T2 sequence: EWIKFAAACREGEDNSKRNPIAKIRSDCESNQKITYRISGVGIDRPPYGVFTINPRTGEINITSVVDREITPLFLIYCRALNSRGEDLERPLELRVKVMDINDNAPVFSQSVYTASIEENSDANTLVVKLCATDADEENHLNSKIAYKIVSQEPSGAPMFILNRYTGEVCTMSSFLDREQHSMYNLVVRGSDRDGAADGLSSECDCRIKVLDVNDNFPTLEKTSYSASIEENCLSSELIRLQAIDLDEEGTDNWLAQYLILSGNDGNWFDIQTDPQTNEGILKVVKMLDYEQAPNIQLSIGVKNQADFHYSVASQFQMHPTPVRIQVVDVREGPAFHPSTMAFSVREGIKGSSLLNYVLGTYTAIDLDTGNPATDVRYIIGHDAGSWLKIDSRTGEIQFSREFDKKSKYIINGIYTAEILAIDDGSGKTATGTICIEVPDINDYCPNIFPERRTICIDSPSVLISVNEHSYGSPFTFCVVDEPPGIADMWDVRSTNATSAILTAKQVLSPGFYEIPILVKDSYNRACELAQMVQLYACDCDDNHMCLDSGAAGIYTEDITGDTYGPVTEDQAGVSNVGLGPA

T3: desmoglein-1 (Homo sapiens (Human), UniProt Q02413 50-548)
T3 construct: also called DSG-1
T3 sequence: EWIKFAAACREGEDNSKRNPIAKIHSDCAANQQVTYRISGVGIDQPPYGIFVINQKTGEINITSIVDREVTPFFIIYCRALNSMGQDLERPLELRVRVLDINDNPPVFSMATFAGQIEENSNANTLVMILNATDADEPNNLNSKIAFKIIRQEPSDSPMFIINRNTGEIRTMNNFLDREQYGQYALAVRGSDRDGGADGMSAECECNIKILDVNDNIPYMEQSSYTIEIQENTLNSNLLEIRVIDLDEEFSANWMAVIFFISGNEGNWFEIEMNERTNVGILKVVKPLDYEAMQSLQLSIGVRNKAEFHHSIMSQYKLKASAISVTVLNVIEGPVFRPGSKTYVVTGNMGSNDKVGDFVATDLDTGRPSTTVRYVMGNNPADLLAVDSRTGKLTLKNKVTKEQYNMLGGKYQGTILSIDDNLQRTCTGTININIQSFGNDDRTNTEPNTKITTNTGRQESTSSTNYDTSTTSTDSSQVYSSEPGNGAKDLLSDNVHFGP

T4: desmoglein-2 (Homo sapiens (Human), UniProt Q14126 50-609)
T4 construct: also called DSG-2
T4 sequence: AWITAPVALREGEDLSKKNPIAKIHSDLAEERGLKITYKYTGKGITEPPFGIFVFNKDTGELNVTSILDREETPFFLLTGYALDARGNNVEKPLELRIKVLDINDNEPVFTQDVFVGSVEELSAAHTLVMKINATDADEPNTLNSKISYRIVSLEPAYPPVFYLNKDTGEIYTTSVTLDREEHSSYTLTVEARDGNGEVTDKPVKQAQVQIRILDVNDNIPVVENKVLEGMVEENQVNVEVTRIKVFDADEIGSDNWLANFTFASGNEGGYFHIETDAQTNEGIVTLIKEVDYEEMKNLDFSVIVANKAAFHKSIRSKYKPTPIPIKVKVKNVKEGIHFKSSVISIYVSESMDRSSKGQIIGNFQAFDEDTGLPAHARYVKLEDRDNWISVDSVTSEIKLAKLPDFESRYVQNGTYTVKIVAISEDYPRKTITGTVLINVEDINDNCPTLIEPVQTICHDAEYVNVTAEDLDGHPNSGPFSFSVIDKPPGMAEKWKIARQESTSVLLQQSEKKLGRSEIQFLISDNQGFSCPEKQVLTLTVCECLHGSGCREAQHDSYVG

T5: mouse PD-1 (mouse, UniProt Q02242 25-167, limits assumed)
T5 sequence (looked up): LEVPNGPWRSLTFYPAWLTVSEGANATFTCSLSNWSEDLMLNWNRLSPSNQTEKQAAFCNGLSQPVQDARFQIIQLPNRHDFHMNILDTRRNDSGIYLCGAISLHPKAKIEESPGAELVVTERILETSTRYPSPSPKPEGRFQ

B1: IL2DSGAB1 (other)
heavy: QVQLQESGPGPVKPSGTLSLTCGVSGGSISSNHWWTWVRQPPGKGLEWIGEIYHNGSTFLNPSLKSRVTISVDKSNNQFSLKLTSVTAADTAVYYCARGWHRTGFRGYPSHWYFDLWGRGTLVSVSSASTKGPSVFPLAPSSKSTSGGTAALGCLVKDYFPEPVTVSWNSGALTSGVHTFPAVLQSSGLYSLSSVVTVPSSSLGTQTYICNVNHKPSNTKVDKKVEPKSCDKTHTCPPCPAPEAAGAPSVFLFPPKPKDTLMISRTPEVTCVVVDVSHEDPEVKFNWYVDGVEVHNAKTKPREEQYNSTYRVVSVLTVLHQDWLNGKEYKCKVSNKALPAPIEKTISKAKGQPREPQVYTLPPSREEMTKNQVSLTCLVKGFYPSDIAVEWESNGQPENNYKTTPPVLDSDGSFFLYSKLTVDKSRWQQGNVFSCSVMHEALHNHYTQKSLSLSPGGGGGSAPTSSSTKKTQLQLEHLLLDLQMILNGINNYKNPKLTRMLTFKFYMPKKATELKHLQCLEEELKPLEEALNLAPSKNFHLRPRDLISDINVIVLELKGSETTFMCEYADETATIVEFINRWITFSQSIISTLT
light: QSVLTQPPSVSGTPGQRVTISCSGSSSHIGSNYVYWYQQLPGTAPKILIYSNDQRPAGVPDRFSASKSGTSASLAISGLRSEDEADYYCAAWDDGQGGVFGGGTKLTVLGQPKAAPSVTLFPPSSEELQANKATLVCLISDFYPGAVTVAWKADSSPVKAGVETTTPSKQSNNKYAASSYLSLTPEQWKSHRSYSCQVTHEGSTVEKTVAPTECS
notes: SD1 anti-desmoglein human IgG1 with the IL-2 mutein fused to the C-terminus of the heavy chain; copies: 2 + 2
B2: PD1DSGAB9 (bispecific antibody)
heavy: EVQLLESGGGLVQPGGSLRLSCAASGFTFSNSDMSWVRQAPGKGLEWVSGITISGGSTYYADSVKGRFTISRDNSKNTLYLQMNSLRAEDTAVYYCARGRGGSGWLDYWGQGTLVTVSSASTKGPSVFPLAPSSKSTSGGTAALGCLVKDYFPEPVTVSWNSGALTSGVHTFPAVLQSSGLYSLSSVVTVPSSSLGTQTYICNVNHKPSNTKVDKKVEPKSCDKTHTCPPCPAPEAAGAPSVFLFPPKPKDTLMISRTPEVTCVVVDVSHEDPEVKFNWYVDGVEVHNAKTKPREEQYNSTYRVVSVLTVLHQDWLNGKEYKCKVSNKALPAPIEKTISKAKGQPREPQVYTLPPSREEMTKNQVSLTCLVKGFYPSDIAVEWESNGQPENNYKTTPPVLDSDGSFFLYSKLTVDKSRWQQGNVFSCSVMHEALHNHYTQKSLSLSPGGGGGSGGGGSGGGGSQSVLTQPPSVSGTPGQRVTISCSGSSSHIGSNYVYWYQQLPGTAPKILIYSNDQRPAGVPDRFSASKSGTSASLAISGLRSEDEADYYCAAWDDGQGGVFGGGTKLTVLGGGGSGGGGSGGGGSGGGGSQVQLQESGPGPVKPSGTLSLTCGVSGGSISSNHWWTWVRQPPGKGLEWIGEIYHNGSTFLNPSLKSRVTISVDKSNNQFSLKLTSVTAADTAVYYCARGWHRTGFRGYPSHWYFDLWGRGTLVSVSS
light: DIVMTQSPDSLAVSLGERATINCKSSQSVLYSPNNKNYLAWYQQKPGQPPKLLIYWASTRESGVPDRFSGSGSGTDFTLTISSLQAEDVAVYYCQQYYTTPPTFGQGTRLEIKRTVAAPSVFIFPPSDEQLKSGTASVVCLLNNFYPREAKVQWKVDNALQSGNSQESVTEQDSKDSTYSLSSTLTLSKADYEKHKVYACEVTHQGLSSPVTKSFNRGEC
notes: also called PD1DS91; copies: 2 + 2

What was measured:
human DSG-3 [1] = biological target: T1, human DSG-3; assay: bridging ELISA, plate coated with hDSG-3, test article at 10 nM, then his-tagged hCD25 1 ug/mL, anti-His-HRP detection
Description: (§1) An immunosorbent plate was coated with dsDNA at a concentration of 1 μg/mL hDSG-3 in PBS pH 7.4 and incubated overnight at 4° C. Wells were washed with PBS pH 7.4 containing 0.05% Tween-20 (wash buffer) three times, and then blocked with 6% milk in PBS pH 7.4 (block buffer) for two hours at room temperature. After three washes with wash buffer, 1 nM, 10 nM, and 100 nM of the test articles in assay buffer (PBS, pH 7.4 containing 1% BSA and 0.05% Tween-20) was added and incubated for 1 hr. After three washes with wash buffer 1 μg/mL of his-tagged hCD25 was added and incubated for 1 hr. Detected with anti anti-His-HRP conjugated antibody (1:10,000 dilution).

human DSG-3 [2] = biological target: T1, human DSG-3; assay: bridging ELISA, plate coated with hDSG-3, test article at 100 nM, then his-tagged hCD25 1 ug/mL, anti-His-HRP detection
Description: as §1

human DSG-3 [3] = biological target: T1, human DSG-3; assay: BLI (Octet), test article captured on anti-human Fc biosensors, desmoglein as analyte, 1:1 global fit
Description: (§2) Anti-human Fc biosensors were equilibrated in assay buffer (PBS, pH 7.4 with 1% BSA, and 0.05% Tween-20) for 30 minutes before the experiment was set-up. Test articles were diluted to 5 ug/mL in assay buffer. A two-fold, seven-point dilution of human DSG-3 (starting at 300 nM as the highest concentration) was made. Test articles were captured using anti-human Fc biosensors for 180 s. Biosensors loaded with test articles were equilibrated in assay buffer for 120 s; association was performed for 180 seconds and dissociation was performed for 300 s. Kinetic parameters (kon and kdis) and dissociation constant (KD) were calculated from a 1:1 global fit model using the data analysis software of the Octet96 RED software version 10.

desmoglein-4 = biological target: T2, desmoglein-4; assay: as above
Description: as §2

desmoglein-1 = biological target: T3, desmoglein-1; assay: as above
Description: as §2

desmoglein-2 = biological target: T4, desmoglein-2; assay: as above
Description: as §2

Insulin = biological target: T6, Insulin; assay: ELISA, plate coated with insulin 5 ug/mL, test article at 100 nM, anti-human Fc-HRP detection
T6 construct: Plate coat in the polyreactivity ELISA
Description: Non-specific DNA and Insulin binding (a measure of polyreactivity), which may be predictive of poor PK, was measured. An immunosorbent plate was coated with dsDNA at a concentration of 1 μg/mL or Insulin at 5 μg/mL in PBS pH 7.4 and incubated overnight at 4° C. Wells were washed with PBS pH 7.4 containing 0.05% Tween-20 (wash buffer) three times, and then blocked with 1% BSA in PBS pH 7.4 (block buffer) for two hours at room temperature. […] The diluted material was added to the DNA/insulin coated plate for 1 hour at room temperature. After three washes with wash buffer, a donkey anti-human FcY HRP conjugated polyclonal antibody, diluted to 1:5000 in assay buffer, was added to the plate for 1 hr at room temperature. After three washes with wash buffer and three washes with wash buffer (with no tween-20), the assay was developed with TMB, and stopped with 1N HCL. OD 450 nm was measured.

human DSG-3 [4] = biological target: T1, human DSG-3; assay: bridging ELISA, plate coated with hDSG-3, test article at 1 nM, then his-tagged hCD25 1 ug/mL, anti-His-HRP detection
Description: as §1

[5] = biological target: PD-1 on PD-1 reporter Jurkat cells (human, UniProt Q15116 25-288); assay: cell-based or functional assay
Sequence of PD-1 on PD-1 reporter Jurkat cells (Q15116 25-288): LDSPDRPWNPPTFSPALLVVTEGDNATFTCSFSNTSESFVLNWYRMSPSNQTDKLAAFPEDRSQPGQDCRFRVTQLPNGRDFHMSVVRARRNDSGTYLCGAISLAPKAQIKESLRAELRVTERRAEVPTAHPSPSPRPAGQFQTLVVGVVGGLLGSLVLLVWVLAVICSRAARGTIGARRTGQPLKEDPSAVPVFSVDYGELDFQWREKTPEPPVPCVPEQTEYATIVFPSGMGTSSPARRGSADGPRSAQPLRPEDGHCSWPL

mouse PD-1 = biological target: T5, mouse PD-1; assay: no binding assay described; said in the vitiligo mouse model example
human DSG-3 [6] = biological target: T1, human DSG-3; assay: BLI (Octet), test article captured on anti-human Fc biosensors, human DSG-3 as analyte, 1:1 global fit
Description: as §2

Binder	absorbance (OD450 nm) (human DSG-3 [1])	absorbance (OD450 nm) (human DSG-3 [2])	Kd (human DSG-3 [3]) [nM]	Kd (desmoglein-4) [nM]	Kd (desmoglein-1) [nM]	Kd (desmoglein-2) [nM]	Insulin polyreactivity score (Insulin)	absorbance (OD450 nm) (human DSG-3 [4])	SHP-2 recruitment in PD-1 reporter Jurkat cells (test article on anti-human IgG coated plate), EC50 at 2 hours [5] [nM]	SHP-2 recruitment in PD-1 reporter Jurkat cells (test article on anti-human IgG coated plate), EC50 at 24 hours [5] [nM]	binding result (mouse PD-1)	Kd (human DSG-3 [6]) [nM]	koff (human DSG-3 [6]) [s⁻¹]
B1	0.78	1.3	19	10	13	4.2	2.2	0.31	–	–	–	–	–
B2	–	–	–	–	–	–	–	–	21.2	16.6	no binding	29	0.000757
